Results reported in publication PMC5085866.
Read-outs that look alike come from different tables or passages of the source.

Tests used:
Experiment in all cases: AUC
[1] = biological target: Enterococcus faecium LiaR DNA binding domain (residues 140-210) (Enterococcus faecium)
[2] = biological target: Enterococcus faecium LiaR W73C, full length (Enterococcus faecium)
[3] = biological target: Enterococcus faecium LiaR W73C, full length (Enterococcus faecium); remark: listed apart in the source
[4] = biological target: Enterococcus faecium LiaR receiver domain (residues 1-139) (Enterococcus faecium)
[5] = biological target: Enterococcus faecium LiaR receiver domain (residues 1-139) W73C (Enterococcus faecium)
[6] = biological target: Enterococcus faecium LiaR receiver domain (residues 1-139) W73C (Enterococcus faecium); remark: listed apart in the source

Enterococcus faecium LiaR DNA binding domain (residues 140-210) (domain or fragment)
Kd [1]: 0.4 µM

Enterococcus faecium LiaR W73C, full length (natural protein)
Kd [2]: 236 µM
Kd [3]: 182 µM

Enterococcus faecium LiaR receiver domain (residues 1-139) (domain or fragment)
Kd [4]: 676 µM

Enterococcus faecium LiaR receiver domain (residues 1-139) W73C (domain or fragment)
Kd [5]: 0.8 µM
Kd [6]: 94 µM
